A protein production outcome set (Wang et al. 2014)

Experiment: label from the status in PepcDB records

**Q.** For “MAEAVLENVNVPAVVSKDECIYCFESPYNEPLALNASPKHSLNICLNCFQATCNRHVPLHIRVTEYACDTIHSNYLTIAKVEKPKQENVEENNNNKKIKLQVIETSEDDTHNTIWSLQRFNGENVPRTVLSKSTDSDISSTALEKIEKILKAKSQDFEDKKNSWVLEISTCPHTENFQIPSKPENTVNLNQCSSCDLTQNLWLCLHCGNIGCGREQIGIDGHSHALDHYRSNNNHPLAIKLGSLSSSTYDLYCYACDDETRFPDNVNLGSALQIYGINIQEKIADEKTLVQLQVEQNENWQFRMVDSSGKEFEKLSASKNYGCGLINLGNSCYLNSVIQSLVNGGVPNWSLDFLGSKFPLDVVYPDNNLKCQWIKLLNAMKCEPELYPNGIKPTTFKKCIGQNHQEFSSNRQQDAMEFLTFLLDLLDKKFFSSSSSGIPNPNDLVRFMMEDRLQCNICGKVKYSYEPTEAIQIPLEENDEPQDMLERIKAYFEGQTIEFKCANCKEKVTANKKPGFKSLPQTLILNPIRIRLQNWIPVKTSNELSLPGLIDRDDMLDVSSYLSQGFDPQTENLLPDEDENRSSFTPNQCSISQLIEMGFTQNASVRALFNTGNQDAESAMNWLFQHMDDPDLNDPFVPPPNVPKKDKREVDEVSLTSMLSMGLNPNLCRKALILNNGDVNRSVEWVFNNMDDDGTFPEPEVPNEEQQQKKDLGYSTAKPYALTAVICHKGNSVHSGHYVVFIRKLVADKWKWVLYNDEKLVAADSIEDMKKNGYIYFYTRC”, which protein production is on record?
**A.** failed

**Q.** For “MKEDRVVFIFGPTAVGKSNILFHFPKNKAEIINVDSIQVYKEFNIASSKPSKNLMKHIKHHLVDFLDPEKDYTIGIFYEQALKIVKEIRQKKKIPIFVGGTAFYFKHLKDGFPSTPLVTSKIRIYVNNLLELKGKSYLLKELKNVDPIRFNMLNKNDIYRIKRSLEVYYQTGIPISQFQKKQSSEFKNIVIIGLKRSFEDLKTRISIRINEMLNSGLLSEIKGLFSKGYNENTPAFKGIGYNEFLLWKSRPCYGLNDIIGLINKNSFLYAKRQMTFFAKISDVLWLHPEDDLDNILNLIFKVDKEI”, which protein production is on record?
**A.** failed

**Q.** Which protein production does the source give for “MINIVIVSHSKHLAEGIEALANQMLNPTHCRLAIAAGVDDEAHPIGTDAVKIMTAIESLAEADAIIVMMDLGSAILSTETAIELLDTELAQKVTLCSAPLVEGTLAAVVAASSGASLEKVLEEANHALTPKKMQLGENMGGSEPNDVTPSIQMHGKEAHWVVKNPHGLHVRPAATLVELLSKFRADYQLIKGDRRINPLSLNQLSLIQIRQGDEITLIASGEQENEAIDAFLALAKQGFGEALPDELTEQSLTGTLVPASPIKGPAFIWHELELAPIENLSAPLDSTIQIEQFNQAIKDTLNDLKHYAEKANHTLGEQIGAIFNGHIMMLDDEELLTNVIDRIKTDNVSAQQSWTNEMKERIQLYRTLSDPYLRARELDLRDLRNQVLYHLQQKTPPKFTPSQPSILVAKELFPSTLIQFDATQLLAITLAEGDSCSHSAIIATQMGLPMLVHLGDGLLKIKEAQELTLDLKSSELIIGSIN” here?
**A.** failed

**Q.** With “ASISEVAAITGLTQDTLRWYEREGMIPTIARGSDRRRRYSERDVRLIELLVKLRTTGMPTSDMQRFAVLLAGGAETHERRLALLLAHRERILAQQARLDDALAALDTKVDHYR” as the sequence, how does the protein production read?
**A.** failed

**Q.** Which protein production does the source give for “ANVKLLLPYILKWEGGFVHDPADAGGATNKGVTIATWKRVGYDKDGDGDIDVEDLKLLTDDDVLNRVLKPFYWDRWKADLIESQKVANILVDWVWGSGKYGIVIPQRILGVQADGIVGNKTLQAVNSADPDELFESIFDARREFLEDITARSIKKYEDSIGRKATERELLRHTNKRFLRGWLNRLEDI” here?
**A.** not failed

**Q.** For “MKSILEQLSSITVVVADTGDLDAIKKFQPRDATTNPSLILAAAKNPDYIKLIDQALESSRKSLPAGFSESELIKETIDQVSVFFGKEILNLISGRVSTEVDARLSFDTEATVTKARKLINHYKSFGINKERILIKIASTWEGIKAAEILEKEGIKCNLTLLFNFCQAVACANAKITLISPFVGRILDWHKAKTGKDNFAGCEDPGVISVTKIYNYFKEKGFKTEVMGASFRNIDEIKELAGCDLLTIAPKFLDELNREEGELIKKLDEDTQSQSSIDYKFDEKDFRLSMLEDQMASEKLSEGITGFSKAIEELEELLLKRLSEINNQKLISTT”, which protein production is on record?
**A.** failed

**Q.** With “MAQQFKDYFSEKSDVYRSYRPGYPTELFAWLAGLPARRDAALDCGCGTGQASVALAEHFARVYAVDPSAGQIKSATPHKRVEYRVAPAEETGLPDASVDLVIAAQALHWFDFSRFYAEVRRVARGGAVFAAFTYGLLAIDDEIDRIIGRFYRDVIGPYWPPERAHVDAGYRTLPFPFAEIETPTFAMKAEWDLGHLMGYFETWSAVKEYRRLRGDDPLELVAGDLATAWGDPALVRQVSWPLVLRAGRIE” as the sequence, how does the protein production read?
**A.** failed

**Q.** For “MALSKRELDELKPWIEKTVKRVLGFSEPTVVTAALNCVGKGMDKKKAADHLKPFLDDSTLRFVDKLFEAVEEGRSSRHS”, which protein production is on record?
**A.** not failed

**Q.** Which protein production does the source give for “MSELAASLLSRVILPRPGEPLDVRKLYLEESTTNARRAHAPTRTSLQIGAESEVSFATYFNAFPASYWRRWTTCKSVVLRVQVTGAGRVDVYRTKATGARIFVEGHDFTGTEDQPAAVETEVVLQPFEDGGWVWFDITTDTAVTLHSGGWYATSPAPGTANIAVGIPTFNRPADCVNALRELTADPLVDQVIGAVIVPDQGERKVRDHPDFPAAAARLGSRLSIHDQPNLGGSGGYSRVMYEALKNTDCQQILFMDDDIRLEPDSILRVLAMHRFAKAPMLVGGQMLNLQEPSHLHIMGEVVDRSIFMWTAAPHAEYDHDFAEYPLNDNNSRSKLLHRRIDVDYNGWWTCMIPRQVAEELGQPLPLFIKWDDADYGLRAAEHGYPTVTLPGAAIWHMAWSDKDDAIDWQAYFHLRNRLVVAAMHWDGPKAQVIGLVRSHLKATLKHLACLEYSTVAIQNKAIDDFLAGPEHIFSILESALPQVHRIRKSYPDAVVLPAASELPPPLHKNKAMKPPVNPLVIGYRLARGIMHNLTAANPQHHRRPEFNVPTQDARWFLLCTVDGATVTTADGCGVVYRQRDRAKMFALLWQSLRRQRQLLKRFEEMRRIYRDALPTLSSKQKWETALLPAANQEPEHG” here?
**A.** failed

**Q.** With “MIYGILSKNLGMPTPTFLVCPDVVKFENVGQIAVVNGMVYLGGSVGIDKSGTLHKGLEEQTRQTFDNIRKCLEYANSGLDYIVSLNIFLSTSLSDSEEARFNELYREVFCVPATRPCRCCVRAQLQEGLLVEVVNVVAAQK” as the sequence, how does the protein production read?
**A.** not failed

**Q.** Which protein production does the source give for “MAVRFASLGSGSDGNALLVESTDGTTSTRILLDCGFGIRETVRRLERLGCAPASLDAILVTHEHGDHIGSAYAFAAKYSVPVWTSHGTYRATASLRGADRAAVRFCRADDAFSIGDLRILPYTVPHDAREPLQFIFDDGARRLGVLTDAGMSTEYLCGHLTGLHAFVLECNHDREMLANSAYPWSLKQRIGGDFGHLANDIAAAILARVRHDGLHTVVAAHLSKQNNTPELAAAAIASALGVPAGDVPIADQEAGLGWQAV” here?
**A.** failed

**Q.** Which protein production does the source give for “MYEDNAACIAQLKDGYIKGDRTKHILPKFFFTHDLQKSGDVRVLQIRSNDNLSDLFTKALPTATFKKLVYRIGLRRLKDLDEYTHKGE” here?
**A.** failed

**Q.** Which protein production does the source give for “MEQNITLKDRSKLVISGVEHIYSFNDKRVELKTSVGEMVIEGENLDMSKLSIDENIISIDGTINSMVYAKPKKPQESFLKKVFR” here?
**A.** failed

**Q.** Which protein production does the source give for “MAVSNDITFADYFYQWYEVNKLPHVSESTKRHYESAYKHIKDHFRHKLLKDIKRTEYQKFLNEYGLTHSYETIRKLNSYIRNAFDDAIHEGYVIKNPTYKAELHASVPAKTELEHHHHHH” here?
**A.** not failed

**Q.** With “MSFVPSLPNLGRFWTAANALSLCRLALVVPITVFLWRDGPLGWLLGLVILVILTDWFDGRIARWTHSVSDWGKVIDPVADKFAAIMTVTALTFRPADPHLPLWFFGLVVGRDVAILLGGMAIARRSGQIVMSAWAGKAASLWLALTILSVILRADPPVFRVCLWMATGLFVFSFLLYVVRYLQATRNAEGATPDSVPQGP” as the sequence, how does the protein production read?
**A.** failed

**Q.** Which protein production does the source give for “MLKEILSSALLMLIMIDPSDKILLVSLLREDFHIEDVKSLIIRANLIGFILLLLFAVAGKIILQDIFHIELDALRVAGGFVLFKIGLEALEGGGMVTIKREKNILALAAVPVATPLIAGPAAITAAITLTAEHGIIVSIVGTLIAIAITAALMMIALYLMRGISKTALSVTIRIIGLFIMAIGAQMMITGAGGIVLNLIKGA” here?
**A.** failed

**Q.** Which protein production does the source give for “MTSFEDADTEETVTCLQMTVYHPGQLQCGIFQSISFNREKLPSSEVVKFGRNSNICHYTFQDKQVSRVQFSLQLFKKFNSSVLSFEIKNMSKKTNLIVDSRELGYLNKMDLPYRCMVRFGEYQFLMEKEDGESLEFFETQFILSPRSLLQENNWPPHRPIPEYGTYSLCSSQSSSPTEMDENES” here?
**A.** failed

**Q.** With “MDKKENTVVLFPQLSERYIDEGFLALKERKFEDALRCFEILRQYNAETEQTELASVICLLELKRMEEAKDKCEQLLKTGVVLFGDILETYVTILVQTNDYEGVIETVEKVLQTKDIMPDQKEKLAQLALFAEGMLNEGDASLVDSNFELDEFTNEIFGENFGQKLRAIQRLSLKDLDLALPVLKKFLIEEEQHPYLKTSILYKMIESQVEEEIEVEKFGNTIKVIPAFTGHNEEQSNNIIHKLSSRLEQNYPDIFEAMVTYWKELQISVFPFALLMDKEEIWSAVLERIGRKRFGLAIDEEELMAAYNIELEEFHIAYQWLLRVEREGYLPV” as the sequence, how does the protein production read?
**A.** failed

**Q.** With “TATNHQGLPAVDSEILEMPPEKADGVVEGIDVNGPKAQLMLRYPDGKREQITLPEQAKLLALVKHVQSKGYPNERFELLTNFPRRKLSHLDYDITLQEAGLCPQETVFVQE” as the sequence, how does the protein production read?
**A.** not failed

**Q.** Which protein production does the source give for “SVMAEGTAVLRRNRPGTKAQDFYNWPDESFDEMDSTLAVQQYIQQNIRADCSNIDKILEPPEGQDEGVWKYEHLRQFCLELNGLAVKLQSECHPDTCTQMTATEQWIFLCAAHKTPKECPAIDYTRHTLDGAACLLNSNKYFPSRVSIKESSVAKLGSVCRRIYRIFSHAYFHHRQIFDEYENETFLCHRFTKFVMKYNLMSKDNLIVPILEEEVQNSVSGESEA” here?
**A.** failed

**Q.** For “MEVIVVDDEELSLNRLGNMLAGMPGVEVCGLFYTAAEALRYINENKPDAVFLDICIPETDGLALANKIKDIDGSAKVVFVTGYDEYAVRAFELEAVDYLMKPISRDRLEKTVQRLQRTLLGTDRQSNPQMKVSCFGGFRATVCESDSGSVNWRSPKTEELFAFLIFKRNVSRDEIANTLWDGLEPGRALTNINSTMYYIRKALSPHGLEKCIAATRKEIRIDSELISCDLYEFERLLRGRPSSKDRVETLDRLAELYKGELFQGKAYEWSFAKSRSLESGFISALLETAEYYREKRGYEQAEKMYKRAFEIDPFNEDICGHIIQICLKMGRKSEALRLYLQMEKFLMEELGEKPQAKLKKLFEEQ”, which protein production is on record?
**A.** failed

**Q.** Which protein production does the source give for “NSDVPENTHLVSKEVQAAFNAKYPQAKDVEWELKGDYAVADFYWDGGEHSAWFNPLSAAWYMTETDVRYENLPEPVLAAHKAGKYADWRVDDVDKLTREGMETLYVIEVEKGESELDLFYSSTGILVKTVVDTGHEEDYDDYLPQPDANGIIAIVKQKYPNATIVEIEREKGLQEVTILDENKEKEVYFNERNEWMGTSWDVQVANLPEAVKKSVMEKYSDYVIDDADYVVTPDNEWYILDLENKQIDKELKVKVDKDGVWL” here?
**A.** not failed

**Q.** With “PFKAGKARGLTTEQLNTRLDIDEFETGLMRLAQDSFSTDDYLFQEGQYLDEDTVLSWLARKKTGSDLKKAEKEDKNFKNEGLNPALPSSGSTEEKNESSPIYLASMLEHDYLVRKDKNSIQLGGVMIGLALNSVYYYREKTGDPQKEVEIKDSTLRQQGEKIAQEVINRLRKKDNLKNVPITVALYKQASKTSIVPGNFIAKTEVKAGSTDISNWDDINEKYVFYPADTTTAEKYPDDTEVFKRFKNSIEEYFPNYTGVVGTALYENDEMKKMKIDIPMQFYGKSEVVAFTQFLTGEVMDYYSKSSVDVEVNITSSDGQEAVIIRNAGDKEPTVHIYD” as the sequence, how does the protein production read?
**A.** failed

**Q.** For “MVAAIIAGAAVAAAAYAGKYGIEAWQAFKLRPVRPRMRKFYEGGFQATMNRREAALILGVRESVAAEKVKEAHRRVMVANHPDAGGSHYLASKINEAKDMMLGKTKNSGSAF”, which protein production is on record?
**A.** failed
